Target: the molecule itself
Test: crystal structure; hanging-drop vapor diffusion; 1.6 M Na+/K+ phosphate, 0.2 M LiSO4, 0.1 M CAPS pH 10.5; space group C2; two MtrR dimers in the asymmetric unit

B1: MtrR (natural protein)
chain: MRKTKTEALKTKEHLMLAALETFYRKGIARTSLNEIAQAAGVTRGALYWHFKNKEDLFDALFQRICDDIENCIAQDAADAEGGSWTVFRHTLLHFFERLQSNDIHYKFHNILFLKCEHTEQNAAVIAIARKHQAIWREKITAVLTEAVENQDLADDLDKETAVIFIKSTLDGLIWRWFSSGESFDLGKTAPRIIGIMMDNLENHPCLRRK
notes: also called native MtrR; WT MtrR
B1: binds.
